Experiments:
[1] = target: human CD40 on cells (human) (UniProt P25942); assay: FACS on human B cells (CD19+ gate), PE anti-human IgG Fc, MFI
[2] = target: human CD40-His protein (human) (UniProt P25942); assay: ELISA on coated human CD40-His (1.0 ug/ml), anti-human IgG-HRP, OD450
[3] = target: human CD40 on cells (human) (UniProt P25942); assay: FACS on Jurkat cells overexpressing human CD40, PE anti-human IgG, MFI
[4] = target: human CD40 on cells (human) (UniProt P25942); assay: as above; remark: listed apart in the source

Sequence of selicrelumab (antibody) (VH): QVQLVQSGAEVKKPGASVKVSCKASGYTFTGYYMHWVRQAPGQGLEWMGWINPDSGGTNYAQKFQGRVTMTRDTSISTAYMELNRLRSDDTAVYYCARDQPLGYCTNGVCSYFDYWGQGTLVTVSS
Sequence of selicrelumab (antibody) (VL): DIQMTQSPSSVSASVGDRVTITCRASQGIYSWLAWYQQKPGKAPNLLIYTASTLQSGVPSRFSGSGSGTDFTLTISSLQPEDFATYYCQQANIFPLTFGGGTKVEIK
Sequence of human CD40 on cells (human) (P25942 21-277): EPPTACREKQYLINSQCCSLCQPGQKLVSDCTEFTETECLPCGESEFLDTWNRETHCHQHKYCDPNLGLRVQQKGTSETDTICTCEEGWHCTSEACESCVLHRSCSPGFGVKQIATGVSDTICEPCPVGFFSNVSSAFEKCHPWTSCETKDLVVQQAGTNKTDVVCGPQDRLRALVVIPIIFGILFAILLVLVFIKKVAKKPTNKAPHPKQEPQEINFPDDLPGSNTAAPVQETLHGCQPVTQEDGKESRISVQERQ
Sequence of human CD40-His protein (human) (P25942 21-193 limits assumed): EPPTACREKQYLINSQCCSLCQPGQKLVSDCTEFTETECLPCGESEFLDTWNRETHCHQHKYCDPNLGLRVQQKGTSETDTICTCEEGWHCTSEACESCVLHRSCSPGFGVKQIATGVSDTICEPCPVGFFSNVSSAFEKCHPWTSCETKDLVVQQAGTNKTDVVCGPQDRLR

EC50 (read off the curve) [1]: 1 nM
EC50 (read off the curve) [2]: 0.7 nM
EC50 (read off the curve) [3]: 0.9 nM
EC50 (read off the curve) [4]: 1 nM
Substance: selicrelumab (antibody)
